Measured values taken from patent US20240288440A1 (MACFARLANE BURNET INSTITUTE FOR MEDICAL RESEARCH AND PUBLIC …, published 2024).

Biological target: SARS-COV-2 spike protein, ancestral Hu-1, on retroviral pseudotyped virus (SARS-COV-2, UniProt P0DTC2 14-1273)
Assay: cell-based or functional assay

B1: CB6-dIgA2 (dimeric chimeric IgA2 of monoclonal antibody CB6 with J chain) (antibody)
heavy: ASEVQLVESGGGLVQPGGSLRLSCAASGFTVSSNYMSWVRQAPGKGLEWVSVIYSGGSTFYADSVKGRFTISRDNSMNTLFLQMNSLRAEDTAVYYCARVLPMYGDYLDYWGQGTLVTVSSASTKGPSVFPLAPSSKSTSGASPTSPKVFPLSLDSTPQDGNVVVACLVQGFFPQEPLSVTWSESGQNVTARNFPPSQDASGDLYTTSSQLTLPATQCPDGKSVTCHVKHYTNPSQDVTVPCPVPPPPPCCHPRLSLHRPALEDLLLGSEANLTCTLTGLRDASGATFTWTPSSGKSAVQGPPERDLCGCYSVSSVLPGCAQPWNHGETFTCTAAHPELKTPLTANITKSGNTFRPEVHLLPPPSEELALNELVTLTCLARGFSPKDVLVRWLQGSQELPREKYLTWASRQEPSQGTTTFAVTSILRVAAEDWKKGDTFSCMVGHEALPLAFTQKTIDRLAGKPTHVNVSVVMAEVDGTCY
light: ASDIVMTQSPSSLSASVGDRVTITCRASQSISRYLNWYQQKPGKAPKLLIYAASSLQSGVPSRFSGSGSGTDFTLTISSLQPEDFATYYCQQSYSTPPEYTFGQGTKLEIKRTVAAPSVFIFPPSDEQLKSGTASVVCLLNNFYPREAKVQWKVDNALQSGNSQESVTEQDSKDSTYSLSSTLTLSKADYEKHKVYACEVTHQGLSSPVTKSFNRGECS
J chain: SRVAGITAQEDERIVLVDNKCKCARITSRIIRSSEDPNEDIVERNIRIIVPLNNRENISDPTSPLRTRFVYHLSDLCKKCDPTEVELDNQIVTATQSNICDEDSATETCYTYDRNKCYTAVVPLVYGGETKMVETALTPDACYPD
For B1, the “IC50 of pseudotyped virus entry, fold against the IgG version” value was 2.5 fold.
